Measurements reported in article PMC11947285 (Nature Communications, 2025).

Biological target: the molecule itself
Test: cryo-EM structure

B1: human XPR1 (Xenotropic and polytropic retrovirus receptor 1) (natural protein, UniProt Q9UBH6-1 1-696, looked up)
chain: MKFAEHLSAHITPEWRKQYIQYEAFKDMLYSAQDQAPSVEVTDEDTVKRYFAKFEEKFFQTCEKELAKINTFYSEKLAEAQRRFATLQNELQSSLDAQKESTGVTTLRQRRKPVFHLSHEERVQHRNIKDLKLAFSEFYLSLILLQNYQNLNFTGFRKILKKHDKILETSRGADWRVAHVEVAPFYTCKKINQLISETEAVVTNELEDGDRQKAMKRLRVPPLGAAQPAPAWTTFRVGLFCGIFIVLNITLVLAAVFKLETDRSIWPLIRIYRGGFLLIEFLFLLGINTYGWRQAGVNHVLIFELNPRSNLSHQHLFEIAGFLGILWCLSLLACFFAPISVIPTYVYPLALYGFMVFFLINPTKTFYYKSRFWLLKLLFRVFTAPFHKVGFADFWLADQLNSLSVILMDLEYMICFYSLELKWDESKGLLPNNSEESGICHKYTYGVRAIVQCIPAWLRFIQCLRRYRDTKRAFPHLVNAGKYSTTFFMVTFAALYSTHKERGHSDTMVFFYLWIVFYIISSCYTLIWDLKMDWGLFDKNAGENTFLREEIVYPQKAYYYCAIIEDVILRFAWTIQISITSTTLLPHSGDIIATVFAPLEVFRRFVWNFFRLENEHLNNCGEFRAVRDISVAPLNADDQTLLEQMMDQDDGVRNRQKNRSWKYNQSISLRRPRLASQSKARDTKVLIEDTDDEANT
stoichiometry N: 2
